Reference: the supplement of paper PMC9112550, “Optimization of the antimicrobial peptide Bac7 by deep mutational scanning” (BMC Biology, 2022)

System: Escherichia coli TOP10
Test: shrunken log2 fold change of peptide-encoding DNA abundance (4.5 h post-induction vs induction); higher = less antimicrobial activity (less host growth inhibition)
Conditions: time post-induction: 4.5 h; library: site-saturation at positions 5, 18, 19, 20
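Also: peptides expressed intracellularly from a pBAD plasmid library in pooled LB shake-flask culture, induced with 0.3% L-arabinose, DNA abundance read by NGS, three biological replicates, DESeq2 with apeglm shrinkage.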

Sequence | shrunken log2 fold change
RRIRMRPPRLPRPRPRPLKMPRP | 0.146
RRIRMRPPRLPRPRPRPLLAPRP | 2.1
RRIRMRPPRLPRPRPRPLLDPRP | 0.409
RRIRMRPPRLPRPRPRPLNEPRP | 0.216
RRIRMRPPRLPRPRPRPLNKPRP | 0.118
RRIRMRPPRLPRPRPRPLPIPRP | -0.0881
RRIRMRPPRLPRPRPRPLPPPRP | 1.37
RRIRMRPPRLPRPRPRPLQEPRP | 2.68
RRIRMRPPRLPRPRPRPLQPPRP | 0.737
RRIRMRPPRLPRPRPRPLQSPRP | 2.75
RRIRMRPPRLPRPRPRPLRPPRP | 1.76
RRIRMRPPRLPRPRPRPLTHPRP | 0.0406
RRIRMRPPRLPRPRPRPLVYPRP | 0.19
RRIRMRPPRLPRPRPRPLYLPRP | -0.327
RRIRMRPPRLPRPRPRPMATPRP | 0.0129
RRIRMRPPRLPRPRPRPMDVPRP | -0.0209
RRIRMRPPRLPRPRPRPMDYPRP | -0.00149
RRIRMRPPRLPRPRPRPMFCPRP | -0.0875
RRIRMRPPRLPRPRPRPMGTPRP | 0.301
RRIRMRPPRLPRPRPRPMGVPRP | 0.06
RRIRMRPPRLPRPRPRPMGWPRP | 0.808
RRIRMRPPRLPRPRPRPMIFPRP | 0.0369
RRIRMRPPRLPRPRPRPMIIPRP | -0.117
RRIRMRPPRLPRPRPRPMKKPRP | -0.00637
RRIRMRPPRLPRPRPRPMKPPRP | -0.00107

Sequence | shrunken log2 fold change
RRIRMRPPRLPRPRPRPMLVPRP | 0.2
RRIRMRPPRLPRPRPRPMMHPRP | -0.0538
RRIRMRPPRLPRPRPRPMMLPRP | -0.15
RRIRMRPPRLPRPRPRPMMSPRP | 0.0456
RRIRMRPPRLPRPRPRPMQQPRP | 1.38
RRIRMRPPRLPRPRPRPMRAPRP | 2.56
RRIRMRPPRLPRPRPRPMRKPRP | 0.361
RRIRMRPPRLPRPRPRPMTDPRP | 0.0744
RRIRMRPPRLPRPRPRPMTYPRP | 0.157
RRIRMRPPRLPRPRPRPMVEPRP | 0.0167
RRIRMRPPRLPRPRPRPMYCPRP | -0.0254
RRIRMRPPRLPRPRPRPNAEPRP | -0.0356
RRIRMRPPRLPRPRPRPNCSPRP | 0.135
RRIRMRPPRLPRPRPRPNCYPRP | -0.26
RRIRMRPPRLPRPRPRPNDDPRP | 0.196
RRIRMRPPRLPRPRPRPNDWPRP | 0.435
RRIRMRPPRLPRPRPRPNECPRP | 0.175
RRIRMRPPRLPRPRPRPNEIPRP | 0.0871
RRIRMRPPRLPRPRPRPNEYPRP | -0.0432
RRIRMRPPRLPRPRPRPNFCPRP | 0.0533
RRIRMRPPRLPRPRPRPNGAPRP | 0.0765
RRIRMRPPRLPRPRPRPNGDPRP | 0.297
RRIRMRPPRLPRPRPRPNGPPRP | 0.114
RRIRMRPPRLPRPRPRPNGTPRP | 0.0915
RRIRMRPPRLPRPRPRPNHQPRP | -0.105

Sequence | shrunken log2 fold change
RRIRMRPPRLPRPRPRPNIVPRP | 0.0335
RRIRMRPPRLPRPRPRPNKAPRP | -0.05
RRIRMRPPRLPRPRPRPNKMPRP | -0.134
RRIRMRPPRLPRPRPRPNKTPRP | -0.0156
RRIRMRPPRLPRPRPRPNLAPRP | 0.337
RRIRMRPPRLPRPRPRPNLPPRP | -0.0556
RRIRMRPPRLPRPRPRPNNCPRP | -0.167
RRIRMRPPRLPRPRPRPNPHPRP | 0.269
RRIRMRPPRLPRPRPRPNPPPRP | 0.311
RRIRMRPPRLPRPRPRPNPRPRP | 0.718
RRIRMRPPRLPRPRPRPNQMPRP | 0.217
RRIRMRPPRLPRPRPRPNTAPRP | 0.0661
RRIRMRPPRLPRPRPRPNTCPRP | -0.145
RRIRMRPPRLPRPRPRPNTFPRP | 0.105
RRIRMRPPRLPRPRPRPNTSPRP | -0.0142
RRIRMRPPRLPRPRPRPNWCPRP | 0.0361
RRIRMRPPRLPRPRPRPNWGPRP | 0.448
RRIRMRPPRLPRPRPRPNYDPRP | -0.149
RRIRMRPPRLPRPRPRPPCHPRP | 0.186
RRIRMRPPRLPRPRPRPPCRPRP | 0.584
RRIRMRPPRLPRPRPRPPDTPRP | 1.84
RRIRMRPPRLPRPRPRPPDVPRP | 0.00748
RRIRMRPPRLPRPRPRPPEAPRP | 0.779
RRIRMRPPRLPRPRPRPPEVPRP | 1.25
RRIRMRPPRLPRPRPRPPEWPRP | 0.5

Sequence | shrunken log2 fold change
RRIRMRPPRLPRPRPRPPHQPRP | 0.634
RRIRMRPPRLPRPRPRPPHTPRP | 0.824
RRIRMRPPRLPRPRPRPPLEPRP | 0.873
RRIRMRPPRLPRPRPRPPLLPRP | 0.515
RRIRMRPPRLPRPRPRPPLWPRP | 1.31
RRIRMRPPRLPRPRPRPPMLPRP | 0.382
RRIRMRPPRLPRPRPRPPNMPRP | 0.268
RRIRMRPPRLPRPRPRPPPHPRP | 1.62
RRIRMRPPRLPRPRPRPPPLPRP | 1.58
RRIRMRPPRLPRPRPRPPQDPRP | 1.24
RRIRMRPPRLPRPRPRPPSSPRP | -0.0366
RRIRMRPPRLPRPRPRPPTHPRP | 0.696
RRIRMRPPRLPRPRPRPPTQPRP | 0.785
RRIRMRPPRLPRPRPRPPVFPRP | 0.704
RRIRMRPPRLPRPRPRPPVNPRP | 0.648
RRIRMRPPRLPRPRPRPPVTPRP | 0.673
RRIRMRPPRLPRPRPRPPWKPRP | 0.567
RRIRMRPPRLPRPRPRPPWMPRP | 0.537
RRIRMRPPRLPRPRPRPQCLPRP | -0.108
RRIRMRPPRLPRPRPRPQEMPRP | -0.0105
RRIRMRPPRLPRPRPRPQEYPRP | -0.0485
RRIRMRPPRLPRPRPRPQGGPRP | 0.631
RRIRMRPPRLPRPRPRPQHCPRP | -0.458
RRIRMRPPRLPRPRPRPQHGPRP | 0.0121
RRIRMRPPRLPRPRPRPQHHPRP | -0.0825

Sequence | shrunken log2 fold change
RRIRMRPPRLPRPRPRPQLMPRP | 0.0471
RRIRMRPPRLPRPRPRPQLQPRP | 0.165
RRIRMRPPRLPRPRPRPQNAPRP | 0.0821
RRIRMRPPRLPRPRPRPQPDPRP | 0.658
RRIRMRPPRLPRPRPRPQPFPRP | 0.211
RRIRMRPPRLPRPRPRPQQYPRP | -0.017
RRIRMRPPRLPRPRPRPQRDPRP | 0.0785
RRIRMRPPRLPRPRPRPQRHPRP | 0.348
RRIRMRPPRLPRPRPRPQSVPRP | 0.0409
RRIRMRPPRLPRPRPRPQTKPRP | 0.205
RRIRMRPPRLPRPRPRPQVCPRP | 0.0261
RRIRMRPPRLPRPRPRPQVMPRP | 0.0337
RRIRMRPPRLPRPRPRPQWTPRP | 0.0242
RRIRMRPPRLPRPRPRPRATPRP | 1.57
RRIRMRPPRLPRPRPRPRAVPRP | 0.989
RRIRMRPPRLPRPRPRPRDCPRP | 0.288
RRIRMRPPRLPRPRPRPRDFPRP | 0.83
RRIRMRPPRLPRPRPRPRDHPRP | 0.324
RRIRMRPPRLPRPRPRPREEPRP | 1.41
RRIRMRPPRLPRPRPRPRFHPRP | 0.142
RRIRMRPPRLPRPRPRPRGFPRP | 0.045
RRIRMRPPRLPRPRPRPRGNPRP | 0.37
RRIRMRPPRLPRPRPRPRHKPRP | 0.402
RRIRMRPPRLPRPRPRPRHTPRP | 1.15
RRIRMRPPRLPRPRPRPRILPRP | 0.0948

Sequence | shrunken log2 fold change
RRIRMRPPRLPRPRPRPRISPRP | 0.395
RRIRMRPPRLPRPRPRPRKLPRP | 0.857
RRIRMRPPRLPRPRPRPRLNPRP | 0.305
RRIRMRPPRLPRPRPRPRLQPRP | 0.417
RRIRMRPPRLPRPRPRPRMAPRP | 1.38
RRIRMRPPRLPRPRPRPRMHPRP | 0.118
RRIRMRPPRLPRPRPRPRMWPRP | 1.04
RRIRMRPPRLPRPRPRPRNIPRP | 0.0054
RRIRMRPPRLPRPRPRPRPNPRP | 0.903
RRIRMRPPRLPRPRPRPRPSPRP | 1.12
RRIRMRPPRLPRPRPRPRQHPRP | 0.47
RRIRMRPPRLPRPRPRPRQVPRP | 0.388
RRIRMRPPRLPRPRPRPRTGPRP | 0.561
RRIRMRPPRLPRPRPRPRTHPRP | 0.28
RRIRMRPPRLPRPRPRPRTKPRP | 1.21
RRIRMRPPRLPRPRPRPRVRPRP | 0.921
RRIRMRPPRLPRPRPRPRWLPRP | 0.459
RRIRMRPPRLPRPRPRPRWQPRP | 0.146
RRIRMRPPRLPRPRPRPRWTPRP | 0.548
RRIRMRPPRLPRPRPRPRYMPRP | -0.212
RRIRMRPPRLPRPRPRPSAEPRP | 2.7
RRIRMRPPRLPRPRPRPSCDPRP | 0.444
RRIRMRPPRLPRPRPRPSCMPRP | -0.0641
RRIRMRPPRLPRPRPRPSCSPRP | -0.0918
RRIRMRPPRLPRPRPRPSDKPRP | 0.0839
